From PMC9482650, “Quantitative fragmentomics allow affinity mapping of interactomes” (Nature Communications, 2022)

Assays:
Test in all cases: holdup assay
Parameters in all cases: key: below the threshold = too weak to quantify, mostly under pKd 3.1 to 4
Details in all cases: plain residues with an end cap or a label only (N-terminal biotin on a linker: ttds)
MPDZ_13, O75970 = biological target: T1, MPDZ_13, O75970
T1 sequence (O75970 1982-2070, limits assumed, looked up): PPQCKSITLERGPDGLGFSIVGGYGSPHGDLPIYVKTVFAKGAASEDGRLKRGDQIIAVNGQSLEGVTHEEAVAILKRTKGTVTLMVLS

Q5TCQ9 = biological target: Q5TCQ9
MAGI2_1, Q86UL8 = biological target: T2, MAGI2_1, Q86UL8
T2 sequence (Q86UL8 12-111, limits assumed, looked up): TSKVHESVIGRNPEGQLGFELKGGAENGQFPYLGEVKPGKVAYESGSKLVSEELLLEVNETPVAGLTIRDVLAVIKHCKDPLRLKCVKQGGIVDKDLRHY

Q9UMS6 = biological target: Q9UMS6
RGS3, P49796-9 = biological target: RGS3, P49796-9
APBA3_2, O96018 = biological target: T3, APBA3_2, O96018
T3 sequence (O96018 480-570, limits assumed, looked up): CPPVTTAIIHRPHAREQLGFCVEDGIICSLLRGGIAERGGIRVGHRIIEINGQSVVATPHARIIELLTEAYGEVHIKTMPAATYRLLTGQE

SIPA1L3, O60292 = biological target: T4, SIPA1L3, O60292
T4 sequence (O60292 961-1052, limits assumed, looked up): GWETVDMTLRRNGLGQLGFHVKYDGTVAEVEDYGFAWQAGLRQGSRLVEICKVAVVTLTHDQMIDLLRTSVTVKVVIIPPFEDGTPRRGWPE

Q9P227 = biological target: Q9P227
MPDZ_11, O75970 = biological target: T5, MPDZ_11, O75970
T5 sequence (O75970 1720-1817, limits assumed, looked up): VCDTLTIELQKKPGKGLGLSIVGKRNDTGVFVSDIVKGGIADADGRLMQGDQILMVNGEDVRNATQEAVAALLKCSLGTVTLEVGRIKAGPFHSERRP

PTPN13_4, Q12923 = biological target: T6, PTPN13_4, Q12923
T6 sequence (Q12923 1783-1878, limits assumed, looked up): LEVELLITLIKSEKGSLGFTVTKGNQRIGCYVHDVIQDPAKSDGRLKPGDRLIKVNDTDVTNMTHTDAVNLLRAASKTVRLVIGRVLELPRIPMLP

NHERF1_2, O14745 = biological target: T7, NHERF1_2, O14745
T7 sequence (O14745 149-244, limits assumed, looked up): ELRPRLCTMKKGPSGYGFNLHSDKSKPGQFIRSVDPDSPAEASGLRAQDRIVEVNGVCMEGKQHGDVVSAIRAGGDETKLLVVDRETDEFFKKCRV

PDZRN4_2, Q6ZMN7 = biological target: PDZRN4_2, Q6ZMN7
GRIP1_1, Q9Y3R0 = biological target: T8, GRIP1_1, Q9Y3R0
T8 sequence (Q9Y3R0 48-146, limits assumed, looked up): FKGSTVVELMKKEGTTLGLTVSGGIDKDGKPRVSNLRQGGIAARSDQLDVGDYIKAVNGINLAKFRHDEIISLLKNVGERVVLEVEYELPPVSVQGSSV

SHANK2, Q9UPX8 = biological target: T9, SHANK2, Q9UPX8
T9 sequence (Q9UPX8 621-730, limits assumed, looked up): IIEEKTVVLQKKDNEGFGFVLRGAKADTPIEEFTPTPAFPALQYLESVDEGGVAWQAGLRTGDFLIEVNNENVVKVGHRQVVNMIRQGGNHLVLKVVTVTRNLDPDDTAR

O43166 = biological target: O43166
MPDZ_6, O75970 = biological target: T10, MPDZ_6, O75970
T10 sequence (O75970 1003-1099, limits assumed, looked up): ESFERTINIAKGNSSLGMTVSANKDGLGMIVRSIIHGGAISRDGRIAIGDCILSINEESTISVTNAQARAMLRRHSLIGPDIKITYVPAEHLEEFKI

NHERF1_1, O14745 = biological target: T11, NHERF1_1, O14745
T11 sequence (O14745 9-104, limits assumed, looked up): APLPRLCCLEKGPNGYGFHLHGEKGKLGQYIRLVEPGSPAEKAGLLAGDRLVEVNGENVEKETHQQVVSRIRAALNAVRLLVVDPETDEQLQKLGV

PARD6G, Q9BYG4 = biological target: T12, PARD6G, Q9BYG4
T12 sequence (Q9BYG4 153-261, limits assumed, looked up): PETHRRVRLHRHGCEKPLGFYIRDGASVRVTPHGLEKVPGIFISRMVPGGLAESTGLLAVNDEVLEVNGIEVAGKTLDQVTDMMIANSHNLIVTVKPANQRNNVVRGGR

CNKSR1, Q969H4 = biological target: T13, CNKSR1, Q969H4
T13 sequence (Q969H4 191-295, limits assumed, looked up): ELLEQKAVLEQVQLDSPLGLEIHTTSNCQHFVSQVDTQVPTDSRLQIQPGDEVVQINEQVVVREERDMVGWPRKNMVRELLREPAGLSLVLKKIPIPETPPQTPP

Q96FS4 = biological target: Q96FS4
MAGIX, Q9H6Y5 = biological target: MAGIX, Q9H6Y5
LIMK1, P53667 = biological target: LIMK1, P53667
Q9H190 = biological target: Q9H190
PARD6B, Q9BYG5 = biological target: T14, PARD6B, Q9BYG5
T14 sequence (Q9BYG5 152-260, limits assumed, looked up): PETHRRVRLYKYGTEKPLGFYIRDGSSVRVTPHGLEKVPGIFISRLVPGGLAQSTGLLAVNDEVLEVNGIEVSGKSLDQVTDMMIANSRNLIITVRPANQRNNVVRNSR

Measured: pKd

MAGIX, Q9H6Y5, sequence (Q9H6Y5 118-211): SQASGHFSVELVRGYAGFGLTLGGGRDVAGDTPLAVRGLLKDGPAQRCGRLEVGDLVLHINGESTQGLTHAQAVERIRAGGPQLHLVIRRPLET
LIMK1, P53667, sequence (P53667 155-268): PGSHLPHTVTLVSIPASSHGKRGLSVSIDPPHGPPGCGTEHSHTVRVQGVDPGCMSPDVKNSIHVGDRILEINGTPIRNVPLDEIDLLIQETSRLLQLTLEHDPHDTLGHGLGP
RGS3, P49796-9, sequence (P49796 other isoform, or with tags, fused parts or gaps): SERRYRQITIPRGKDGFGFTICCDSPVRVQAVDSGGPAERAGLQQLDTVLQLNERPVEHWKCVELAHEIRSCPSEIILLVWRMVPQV
PDZRN4_2, Q6ZMN7, sequence (Q6ZMN7 389-498): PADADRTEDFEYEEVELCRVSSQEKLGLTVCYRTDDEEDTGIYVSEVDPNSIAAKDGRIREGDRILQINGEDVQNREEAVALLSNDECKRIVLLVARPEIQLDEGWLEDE

PKTPPTDTSV [KIR3DL3, Q8N743]
below the threshold: all assays above

QSARYRDTEL [TJP2, Q9UDY2]
below the threshold: all assays above

SVWLRKETRV [CYSLTR2, Q9NS75]
below the threshold: all assays above
